# Measured values taken from article PMC4263744, “Single Arginine Mutation in Two Yeast Isocitrate Dehydrogenases: Biochemical Characterization and Functional Implication” (PLoS ONE, 2014).
# Numbering of substitutions follows the chain as printed. Numbers in names are those of the source.
# B1: YlIDH (Yarrowia lipolytica CLIB122) (protein)
# chain: MSTTATRGLSTKIKVKNPIVELDGDEMTRIIWKSIKDKLILPYLDIDLKYYDLGIEYRDQTNDQVTIDAAEAIKKYQVGVKCATITPDEARVKEFGLKKMWLSPNGTIRNILGGTVFREPIVIPAVPRLVPGWKEPIIIGRHAHGDQYKAQDAVIPGAGELTLNFKPANGGDEQVIKVYTYDAPGVAMAMYNTDESITGFAYSSFNLALQKKLPLYMSTKNTILKKYDGRFKDIFQEIYDKEYKDKFDAAGIWYEHRLIDDMVAQMIKSKGGFIMALKNYDGDVQSDIVAQGFGSLGLMTSVLVTPDGKTFESEAAHGTVTRHYRQHQQGKETSTNSIASIFAWTRGLIQRGILDETPEVTKFAEALEKATVDTVDKDGIMTKDLALAGGKTDRSSYVLTEEFIDAVANRLKKDLA
# notes: 6xHis-tagged, pET-28b(+), E. coli Rosetta (DE3); forward primer encodes MSTTATR; 422 residues per subunit
# B2: YlIDH (Yarrowia lipolytica CLIB122; R141H) (protein)
# chain: B1 chain with R141H
# notes: as for B1
# B3: ScIDH1 (Saccharomyces cerevisiae S288C) (protein)
# chain: FSKIKVKQPVVELDGDEMTRIIWDKIKKKLILPYLDVDLKYYDLSVESRDATSDKITQDAAEAIKKYGVGIKCATITPDEARVKEFNLHKMWKSPNGTIRNILGGTVFREPIVIPRIPRLVPRWEKPIIIGRHAHGDQYKATDTLIPGPGSLELVYKPSDPTTAQPQTLKVYDYKGSGVAMAMYNTDESIEGFAHSSFKLAIDKKLNLFLSTKNTILKKYDGRFKDIFQEVYEAQYKSKFEQLGIHYEHRLIDDMVAQMIKSKGGFIMALKNYDGDVQSDIVAQGFGSLGLMTSILVTPDGKTFESEAAHGTVTRHYRKYQKGEETSTNSIASIFAWSRGLLKRGELDNTPALCKFANILESATLNTVQQDGIMTKDLALACGNNERSAYVTTEEFLDAVEKRLQKEIKSIE
# notes: 6xHis-tagged, pET-28b(+), E. coli Rosetta (DE3); transit peptide absent (forward primer encodes M-FSKIKVK); 419 residues per subunit
# B4: ScIDH1 (Saccharomyces cerevisiae S288C; R148H) (protein)
# chain: B3 chain with R132H
# notes: as for B3
# B5: ScIDH1 (Saccharomyces cerevisiae S288C; R148A) (protein)
# chain: B3 chain with R132A
# notes: as for B3
# Tests used:
# [1] = biological target: T1, HcIDH (Homo sapiens, UniProt O75874, R132H); experiment: NADPH consumption at […] nm; type: biochemical; conditions: 2 mM MgCl2, 50 mM Tris-HCl pH 8.0, neomorphic reduction to 2-HG, read-out: α-KG / K m
# T1 construct: gene IDH1; synthetic gene, 6xHis-tagged, pET-28b(+), E. coli Rosetta (DE3); 420 residues per subunit
# [2] = biological target: T2, HcIDH (Homo sapiens, UniProt O75874); experiment: NADPH formation at […] nm, nonlinear regression; type: biochemical; conditions: 0.5 mM NADP+, 2 mM MgCl2, 50 mM Tris-HCl pH 8.0, 25°C; apparent; as D-isocitrate; read-out: Isocitrate ^a / K m
# T2 construct: gene IDH1; synthetic gene, 6xHis-tagged, pET-28b(+), E. coli Rosetta (DE3); 420 residues per subunit
# [3] = biological target: T1, HcIDH; experiment: NADPH formation at […] nm, linear regression; type: biochemical; conditions: 0.5 mM NADP+, 2 mM MgCl2, 50 mM Tris-HCl pH 8.0, 25°C; apparent; as D-isocitrate; read-out: Isocitrate ^a / K m
# [4] = substrate: NC(=O)c1ccc[n+]([C@@H]2O[C@H](COP(=O)(O)OP(=O)(O)OC[C@H]3O[C@@H](n4cnc5c(N)ncnc54)[C@H](OP(=O)(O)O)[C@@H]3O)[C@@H](O)[C@H]2O)c1; experiment: purified protein; type: biochemical, Yarrowia lipolytica; conditions: isocitrate, MgCl2, 50 mM Tris-HCl pH 8.0, 25°C, varied: cofactor
# [5] = substrate: O=C(O)C[C@H](C(=O)O)[C@@H](O)C(=O)O; experiment: purified protein; type: biochemical, Yarrowia lipolytica; conditions: 0.5 mM NADP+, 2 mM MgCl2, 50 mM Tris-HCl pH 8.0, 25°C, apparent, as D-isocitrate
# [6] = substrate: O=C(O)CCC(=O)C(=O)O; experiment: purified protein; type: biochemical, Yarrowia lipolytica; conditions: NADPH, 2 mM MgCl2, 50 mM Tris-HCl pH 8.0, neomorphic reduction to 2-HG
# [7] = substrate: NC(=O)C1=CN([C@@H]2O[C@H](COP(=O)(O)OP(=O)(O)OC[C@H]3O[C@@H](n4cnc5c(N)ncnc54)[C@H](OP(=O)(O)O)[C@@H]3O)[C@@H](O)[C@H]2O)C=CC1; experiment: purified protein; type: biochemical, Yarrowia lipolytica; conditions: α-KG, 2 mM MgCl2, 50 mM Tris-HCl pH 8.0, neomorphic reduction, varied: cofactor
# [8] = substrate: NC(=O)c1ccc[n+]([C@@H]2O[C@H](COP(=O)(O)OP(=O)(O)OC[C@H]3O[C@@H](n4cnc5c(N)ncnc54)[C@H](OP(=O)(O)O)[C@@H]3O)[C@@H](O)[C@H]2O)c1; experiment: purified protein; type: biochemical, Saccharomyces cerevisiae; conditions: isocitrate, MgCl2, 50 mM Tris-HCl pH 8.0, 25°C, varied: cofactor
# [9] = substrate: O=C(O)C[C@H](C(=O)O)[C@@H](O)C(=O)O; experiment: purified protein; type: biochemical, Saccharomyces cerevisiae; conditions: 0.5 mM NADP+, 2 mM MgCl2, 50 mM Tris-HCl pH 8.0, 25°C, apparent, as D-isocitrate
# [10] = substrate: O=C(O)CCC(=O)C(=O)O; experiment: purified protein; type: biochemical, Saccharomyces cerevisiae; conditions: NADPH, 2 mM MgCl2, 50 mM Tris-HCl pH 8.0, neomorphic reduction to 2-HG
# [11] = substrate: NC(=O)C1=CN([C@@H]2O[C@H](COP(=O)(O)OP(=O)(O)OC[C@H]3O[C@@H](n4cnc5c(N)ncnc54)[C@H](OP(=O)(O)O)[C@@H]3O)[C@@H](O)[C@H]2O)C=CC1; experiment: purified protein; type: biochemical, Saccharomyces cerevisiae; conditions: α-KG, 2 mM MgCl2, 50 mM Tris-HCl pH 8.0, neomorphic reduction, varied: cofactor
# T1 sequence (O75874 whole entry R132H): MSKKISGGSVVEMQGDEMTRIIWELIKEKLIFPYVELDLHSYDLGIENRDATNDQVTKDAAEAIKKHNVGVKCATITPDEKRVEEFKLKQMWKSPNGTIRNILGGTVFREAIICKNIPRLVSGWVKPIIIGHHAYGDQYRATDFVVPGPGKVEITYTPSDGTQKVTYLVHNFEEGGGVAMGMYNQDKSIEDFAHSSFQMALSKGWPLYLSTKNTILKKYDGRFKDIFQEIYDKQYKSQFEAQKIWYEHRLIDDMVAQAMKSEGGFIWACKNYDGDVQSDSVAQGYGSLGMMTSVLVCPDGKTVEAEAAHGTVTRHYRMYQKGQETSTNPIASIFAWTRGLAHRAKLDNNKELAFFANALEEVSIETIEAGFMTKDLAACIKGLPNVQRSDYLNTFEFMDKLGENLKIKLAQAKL
# T2 sequence (O75874 whole entry): as the sequence (O75874 whole entry R132H) above, with H132R counted along it
molecule,measurement,setting,value
O=C(O)CCC(=O)C(=O)O [α-KG],Km,[1],157 ± 38.4 µM
O=C(O)C[C@H](C(=O)O)[C@@H](O)C(=O)O [isocitrate],Km,[2],5.7 ± 1.4 µM
same,Km,[3],2280 ± 195 µM
B1,Km,[4],4.1 ± 0.76 µM
same,Km,[5],11.7 ± 1.1 µM
same,kcat,[5],26.6 ± 0.87 s⁻¹
same,kcat/Km,[5],2.3e+06 M⁻¹ s⁻¹
B2,Km,[6],47.3 ± 4.2 µM
same,kcat,[6],0.43 ± 0.017 s⁻¹
same,kcat/Km,[6],9000 M⁻¹ s⁻¹
same,Km,[7],3.2 ± 0.43 µM
same,Km,[5],25.6 ± 2.3 µM
same,kcat,[5],0.14 ± 0.006 s⁻¹
same,kcat/Km,[5],5000 M⁻¹ s⁻¹
B3,Km,[8],17.4 ± 2.01 µM
same,Km,[9],10.5 ± 1.2 µM
same,kcat,[9],26.3 ± 0.09 s⁻¹
same,kcat/Km,[9],2.5e+06 M⁻¹ s⁻¹
B4,Km,[10],30.0 ± 1.76 µM
same,kcat,[10],0.34 ± 0.009 s⁻¹
same,kcat/Km,[10],11000 M⁻¹ s⁻¹
same,Km,[11],5.9 ± 0.51 µM
same,Km,[9],24.8 ± 3.2 µM
same,kcat,[9],0.27 ± 0.015 s⁻¹
same,kcat/Km,[9],11000 M⁻¹ s⁻¹
B5,Km,[9],2263.1 ± 177.3 µM
same,kcat,[9],12.4 ± 5.31 s⁻¹
same,kcat/Km,[9],5000 M⁻¹ s⁻¹
